Laboratory results published in the nanobody polyreactivity screen of Harvey et al. (2022).

Experiment: yeast display, Sf9 membrane polyspecificity reagent, FACS + sequencing; frameworks hold sequencing errors
How it was run: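 Nanobodies came from a synthetic yeast display library in Saccharomyces cerevisiae BJ5465, induced with galactose for 36–48 hours and stained for 1 hour at 4 °C with 10% biotinylated, detergent-solubilized Sf9 membrane reagent. Cells were enriched on streptavidin microbeads and then FACS-sorted, with low and high (top ~1%) gates set on anti-HA fluorescence for expression and streptavidin fluorescence for reagent binding. Each polyreactivity label reflects the gate a clone came from. Genes were amplified by colony PCR, sequenced by MiSeq 2 × 250 and filtered by CDR length.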

Sequence	polyreactivity (PSR sort gate)
QVQLVESGGGLVQAGGSLRLSCAASGFTFRYYAMGWSRQAPGKERELLAAITGRGGSTYYADSVKGRFTISRDNAKNTVYFQMNSLNPEDTAVSFCAARFTRVYAQVRNDYWGQGTQVTVSS	high polyreactivity
QVQLVESVVGLVQAGGSLRLSCASSGSIFYYYTMGWYRHAPGKERELVAAITRGGSTNYADSVKGRFTISRDNAKNTGYLQMNSLKPEDTAVYYCAVAWYRGWYRYDYWGQGTQVTVSS	high polyreactivity
QVQLVESGGGLVQAGGSLRLSCAASGRTIDPNAMGWYRQAPGKERELVAAITRTGVRTYYADSVKGRFTISRDNAKNTVYLQMNSLKPEDTAVYYCNRYGARSNDYWGQGNQVTVSS	low polyreactivity
QVQLVESGGGLVQAGGSLRLSCAASGSTFAYNAMGWYRQAPGKERELVASITVSVGSTYYADSVKGRYTISRDNAKNTVYLQMNRLKPVDTAVYYCAARVTLRSSTYWVPRTGYYYWGQGTQVTVSS	low polyreactivity
QVQLVESGGGLVQAGGSLRLSCAASGSTFRPYAKGWYRQAPGKERELVAAISNGGNTNYADSVKGRFSISRDNAKNTVYLQMNSLIPEDTAFYYCAKTFRGQPYLRYRYYYWGQGTQVTVSS	high polyreactivity
QVQLVESGGGLVQAGGSLRLSCAASGFTFIYYAMGWYRQAPGKERELVAGISSGGRTSYADSVKGRFTISRDNAKNTVYLQMNSLKPEDTAVYYCATPVSRFRRTEYGYYYWGQGTQVTVSS	high polyreactivity
QVQLVESGGGLVQAGGSLRLSCAASGSTFGYYTMGWYREAPGKERELVAAISWSGGSTYYADSVKGRFTISRDNAKNTVYLQMNSLKPEDTAVYYCAALGYTYKYYSYYWGQGTQVTVSS	high polyreactivity
QVQLVESGGGLVKAGGSLRLSCAASGITFHDYPMGWYRQAPGKERELVAAISSGGSTNYADSVKGRFTISRDNEKNTVYLQLNSLKPEDTAVYYCAAKYTDIVARLSLYYYWGQGTQVTVSS	low polyreactivity
QVQLVESGGGLVQAGGSLRLSCAASGRIFYYYAMGWYRQAPGKERELVAASSTYYADSVKGRFTISRDNAKNTVYLQMNSQKPEDTAVYYCAAVTFSYDGYDYWGPGTQVTVSS	low polyreactivity
QVQLVESGGGLVQAGGSLRLSCAASGFIFERYTMGWYRHAPGKERELVAAISDSGGSTYYADSVKGRFTISRDNAKNTVYLQMNSLKPEDTAVYYCAAKFRNYRPSKYYYWGQGTQVTVSS	high polyreactivity
QVQVVDSGGGLVQAGGSLRLSCAASGSIFYVYAMGWYRQAPGKVWEFVAAIRWFSGSTYYADSVKWRYTISRDNAKNTVYLQMNSLKPEDTAVYYCAARKYKQGRFKYDYWGQGTQVTVSS	high polyreactivity
QVQLVESGGGLVQAGGSLRLTCAASGFTFVINDMGWYRQAPGKERELVADITSGGDTYYADSVKGRFTISRDNAKNTVNFQMYSLKPEDTAVYYCAADIYPDWIYLLYGYWGQGTQVTVSS	low polyreactivity
QVQLVESGGGLVQAGGSLRLSCAASGITFIRYAMGWYRQAPGKERELVAAIDWDGSSTYYADSVKGRFTISRDNAKNTGYLQMNSLKPEDTSVYYCNTDYTGPDGTDDYDYWGQGTQVTVSS	low polyreactivity
QVQLVESGGGLVQAGGSLRLSCAASGRIFGRYAMGWYRPAPGKERELVAGISARGGSTYYADSVKGRFTISRDNAKNTVYLQMNSLKPEDTAVYYCAARPYSIVPYDYWGQGTQVTVSS	high polyreactivity
QVQLVESGGGLVQAGGSLRLSCAASGSTFRRNAMGWYRQAPGKERELVAAISRGGNTKYADSVKGGFTISRDNAKNTVYLQKNSLKPEDTAVYYCATYYFSSSHLYGYWGQGTQVTVSS	high polyreactivity
QVQLVESGGGLVQAGGSLRLSCAASGSIFDVNAMGWYRQATGKERELVAAISDSGGSTYYADSVKGRFTISRDNAKNTVYLQMNSLKPEDTAVYYSNADWSWYNYYDFDYWGHGTQVTVSS	low polyreactivity
QVQLVESGGGLVQAGGSLRLSCAASGSILGYYAMGWYRHAPRKERELVASITGNGGSTYYADSVKGRFTISRDNAKNTVYLQMISLKPEDTAVYYCAKRVGPYKLGEYDYWGQGTQVTVSS	high polyreactivity
QVQLVESGGGLVQAGGSLRLSCAASGFIFRTYAMGWYRQAPRKERELVAAITYSAGSTYYADSVKGRFTISRDNAKNTVYLQMNSLKPEDTAVYYCNVRKTWYGYSVTGRYDYWGQGTQVTVSS	low polyreactivity
QVQLVESGGGLVQAGGSLRLSCAASGRTFRDYAMGWYRQEPGKESELVAAITWIGGTTYYADSVKGRFTISRDNAKNTVYLQMNSLKPEDTAVYYCAKKRYHWYGRYYYWGQGTQVTVSS	high polyreactivity
QVQLVESGGGLVQAGGSLRLSCAASGRTISYNTMGWYRQARGKERELVARITWGGGSTNYADSVKGSFTISRDNAKNTVYLQMNSLKPEDTAVYYCAREYSSVYWVRHLFYYWGQGTQVTVSS	low polyreactivity
QVQLVESGGGLVQAGGSLRLSCAASGFTFGRYAMGWYRQAPGKERELVAAISRTGGRTYYADSVKGRFTISRDNAKNTVYLQMNSLKPEDTAVYYCAADKGGTYFNGDSWGQGTLVTVSS	high polyreactivity
QVQLVESGGGLVQAGGSLLLSCAASRSISYAYAMGWYRQAHGKERELVAAISWSDGSTYYADSVKGRFTISRDNAKNTVYLQMNSLKPEDTAVYYCAADYGWHYGDWYDYWGQGTQVTVSS	low polyreactivity

Sequence	polyreactivity (PSR sort gate)
QVQLVESGGGLVQAGGSLRLSCAASGLTFQSYDMGWYRPAPGKERELVAAISRRGGSTYYADSVKGRFTISRDNAKNTVYLQLNSLKPEDTAVYYCAAETYYTYWPYGMGYWGQGTQVTVSS	high polyreactivity
QVQLVESGGGLVQAGGSLRLSCAASGRIFYLYAMGWYRQAPGTEREMVAAITWSGGSTTYADSVKGRFTISRDNAKNTVYLQMNSLKPEDTAVYYCYADGWIFPSFSPMDYWGQGTQVTVSS	low polyreactivity
QVQLVESGGGLVQAGGSLRLSCAASGSTFVYNAMGWYRQAPGKERELVAAISRGGGITYYADSVKGRFTISRDNAKNTVYLQMNSLKPEDTAVYYCNKSRYKSYSYDYWGQGTQVTVSS	high polyreactivity
QVQLVESGGGLVQAGGSLRLSCAASGSIFPSYAMGWYRQAPGKERELVAAISRSAGSTYYADSVKGRFTISRDNAKNTVYLQMNSLKPEDTAVYYCAADGYSSRYRYDYWGQGTQVTVSS	low polyreactivity
QVQLVESGGGLVQAGGSLRLSCAASGRTFRLYAMGWYRQAPGKERQLVAAIDGNGGSTYYADSVKGRFTISRDNAKNTVYLQMNSLKPEDTAVYYCAVSVSVYLDYRRDHQRGYDYWGQGTQVTVSS	low polyreactivity
QVQLVESGGGLVQAGGSLRLSCAAYGRTIPRYAIGWSRQAPGKQRDFVDSISFSSGSTYYADSVKGRFTISRDNAKNTVYVQMKSMKAEDTAVDYSNDIPGSRYYGYRLYYYWGQGTQVTVSS	high polyreactivity
QVQHVESAGRLVQAGGSLRLSCAASGRILVYYALGWYRQPPGKEREFVAAISQRGGSTYYADSVKGRFTISRDNAKNTVYLQMNSLKPDDTEVYYCATRPIQYRRGYDYWGQGTQVTVSS	high polyreactivity
QVQLVESGGGLVQAGGSLRLSCAASGLTFAYYVMGWYRQAPGKERELVATITRGGDTYYADSVKGRFTISRDNAKITVYLQMYSLKPEDTAVYYCNAYLRSGSMDYWGQGTQVTVSS	high polyreactivity
QVQLVESGGGLVQAGGSLRLSCAASGFTLQVYDMGWYRQAPGKERELVADISGSGDSTNYADSVKGRFTISRDNAKNTVYLQMNSLKPEDNAVYYCAAEVRGGYYGYDYWGQGTQVTVSS	low polyreactivity
QVQLVESGGGLVQAGGSLRLSCAASGSIYYNAMGWYRQAPGKERELVAAISTSGGTTYYADSVKGRFTISRDNAKNTVYLQMNSLKPEDTAVYYCNARPSRRGAFDYWGQGTQVTVSS	high polyreactivity
QVQLVESGGGLVQAGGSLRLSCAASGSIFPKYAMGWYRQAPGKEREFVAAISRRGGSTYYAYSVKGRFTISRDNAKNTVYLQMNSLKPEDTAVYYCSVKIPTYPIFGRYGYWGQGTQVTVSS	high polyreactivity
QDQLVESGGGIVQAGGSLRLSCAASGFTFHNNVMGWNRQAPGKERELVATISKSGGSTYYADSVKGRFTISRDNAKNTVYLQMNSLKPEDTAVYYCAGRYRDYGRYGYWGQGTQVTVSS	high polyreactivity
QVHHVESGGGLVQAGGSLRLSCAASGLTFYGYTMGRSRQAPGKERELVAAISRGTSTKYADSVKGRFTISRDNAKNTVYLQMNSLKPEETAVYYCAAKGSRSGMGYWGQGTQVTVSS	high polyreactivity
QVQLVESGGGLVQAGGSLRLSCAASGFTFDRYAMGWYRQAPGKERELVAAISWRGGSTYYADSVKGRFTISRDNAKNTDYLQMNSLKPEDTAVYYCNKGTRHTTAGTPRYDYWGQGTQVTVSS	high polyreactivity
QVQLVESGGGLDQAGGSLRLSCAASGSTFSIYTMGWYRQAPGKEREFVAAITYIGGRTYYADSVKGRFTISRDNAKNTVYLQMNSLKPEDTAVYYCAADWAYYVASYLYYTFDYWGQGTQVTVSS	low polyreactivity
QVQLVESGGGLDQAGGSLRLSCAASGSIFGSYAMGWNTPAPGKERELVAAISVSGGSTYYADSVKGRFTISRYNAKNTVYLQMNSLKPEDTAVYYCAADWQELEYDYWGQGTQVTVSS	low polyreactivity
QVQLVESGGGLVHAGGSLRLSCAASGIIFSWYAMGWYRQAPGKERELVAAITSDGNTYYADSVKGRFTISRDNAKNTVYLQMNSLKPEDTAVYYCIARTYVRRPLGYWGQGWQVTVSS	high polyreactivity
QVQLVESGGGLVQAGGSLRLSCAASGSTFDGNAMGWYRQAPGKERELVAAITSGGSTNYADSVKGRFTISRDNAKNTDYLQMNSLKPEDTAVYYCAADTVSFSILYDYWGQGTQVTVSS	low polyreactivity
QVQLVESGGGLVQAGGSLRLSCAASGRTFSDYAMGWYRQAPGKERELVAAISNGGNTYADSVKGRFTISRDNAKNTVYLQMNSLKPEDTAVYYCNKESGDTARQSIMPSGRGDYWGQGTQVTVSS	low polyreactivity
QDQLEESGGGLVQAGGSLRLSCAASGSTCVKYARGWYRPAPGKERELVAAISTRGGTTYYADSVKGRFTISRDNAKNTVYLQMNSLKPEDTAVYYCATGSYSRGVAYGYWGQGTQVTVSS	high polyreactivity
QVQLVESGGGLVQAGGSLRLSCAASGSTFYKNAMGWYRQAPGKERELVAAINQSGTRTYYADSVKGRFTISRDNAKNTVYLQMNSLKPEDTAVYYCAAGRGPYYRSRTPLYYWGQGTQVTVSS	high polyreactivity
